The assay deals with recombinant human activated Factor VII (FVIIa) (human) (UniProt P08709). Nature of the assay: cell-based or functional assay.
recombinant human activated Factor VII (FVIIa) (human), sequence (P08709 61-212, chain 1 of 2): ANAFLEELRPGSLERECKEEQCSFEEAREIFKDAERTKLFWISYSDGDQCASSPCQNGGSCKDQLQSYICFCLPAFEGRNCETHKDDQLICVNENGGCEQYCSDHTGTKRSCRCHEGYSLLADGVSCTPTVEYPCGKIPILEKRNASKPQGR
recombinant human activated Factor VII (FVIIa) (human), sequence (P08709 213-466, chain 2 of 2): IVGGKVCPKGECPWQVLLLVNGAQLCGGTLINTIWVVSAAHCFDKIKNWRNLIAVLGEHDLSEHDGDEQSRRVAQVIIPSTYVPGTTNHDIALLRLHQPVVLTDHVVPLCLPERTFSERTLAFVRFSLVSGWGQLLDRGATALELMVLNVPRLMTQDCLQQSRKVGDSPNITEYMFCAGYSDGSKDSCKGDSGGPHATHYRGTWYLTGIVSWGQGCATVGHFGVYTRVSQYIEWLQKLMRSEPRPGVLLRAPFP

With “human plasma-derived antithrombin (AT) (from UniProt P01008 33-464)”, the apparent second order rate constant (kinh) of inhibition of free FVIIa by antithrombin is 124 M⁻¹ s⁻¹.

“human plasma-derived alpha-2-macroglobulin (from UniProt P01023 24-1474)”: the apparent second order rate constant of inhibition of FVIIa by alpha-2-macroglobulin, no antibody was 475 M⁻¹ s⁻¹.

The record behind these values is patent US20220064329A1.
